Experimental data as given in publication doi:10.1101/699132 (bioRxiv, 2020).

Molecular target: the molecule itself
Assay: non-reducing SDS-PAGE and immunoblot

B1: PRDX4, murine islets (enzyme, mouse (endogenous in murine islets), UniProt O08807 41-274, looked up)
chain: LESDERFRTRENECHFYAGGQVYPGEASRVSVADHSLHLSKAKISKPAPYWEGTAVINGEFKELKLTDYRGKYLVFFFYPLDFTFVCPTEIIAFGDRIEEFKSINTEVVACSVDSQFTHLAWINTPRRQGGLGPIRIPLLSDLNHQISKDYGVYLEDSGHTLRGLFIIDDKGVLRQITLNDLPVGRSVDETLRLVQAFQYTDKHGEVCPAGWKPGSETIIPDPAGKLKYFDKLN
stoichiometry N: 2
